Measured values from the nanobody polyreactivity screen of Harvey et al. (2022).

Experiment: yeast display, Sf9 membrane polyspecificity reagent, FACS + sequencing; frameworks hold sequencing errors
In short: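 Galactose-induced (36–48 hours) yeast carrying a synthetic nanobody display library were exposed to 10% biotinylated, detergent-solubilized Sf9 membrane reagent at 4 °C for 1 hour. FACS followed streptavidin microbead enrichment, using low and high (top ~1%) gates for expression (anti-HA) and reagent binding (streptavidin). Colony PCR, MiSeq 2 × 250 sequencing and CDR-length filtering followed. Labels for polyreactivity reflect the gate of origin.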

| Sequence | polyreactivity (PSR sort gate) |
| --- | --- |
| QVQLQESGGGLVQVGGSQRLSCAASGNIFYNYAMGRYRHAQGKEHEFDATINHGTSINYADSVKGRFTISRDNAKNTVYLQMNSLKPEDTAVYYCAADLSWTDNLFYWGQGTQVTVSS | low polyreactivity |
| QVQLQESGGGLVRAGGSLRLSCAASGYISTSIAMGWYRQAPGKERELVASFGGGAITNYADSVKGFTISRDNGKNTVYLQMNCLKPEDTAVYYFAVYHGDRGYYSYWGQGTQVTVSS | low polyreactivity |
| QVQLQESGGGMVQAGGSLLSCAASGTISYYREMGWYRQAPGKERELVAGIGVGTITYYADSVKGRFTIIRDNAKNTVYLQMNSLKPEDTAVYYCAAHIDGNDYHAYWGQGTQVTVSS | low polyreactivity |
| QVQLQESGGGPVQAGGSMRLSCAASGSISELRPMGWYREAPGKERELVAGISTGGSTNYADSVKGRFTISRDNAKKTVFLQMNSLKPEDTAVYYCAAASYGEGSYDYWGQGTQVTVRS | high polyreactivity |
| QVQLQESGGGQVQAGGSLRLSSAASGYIFAYNYMGWYRKAPGKERELVAAIVHGSTTNYADSVKGRFTISRDNAKNTVYLHMNNLKPEDTAVYYCAVDAERYYLHSYWGQGTQVTVSS | high polyreactivity |
| QVQLQESGGGQVQAVGSLRLSCAPSGSNFVSDTMCWYRHAPGKDRELVASIGRGSTTNHADSVKGRFTISRDNAKNIVYLLMNSLKPEDTAVYYCAALESYGKYHGYWGQGTQVTVSS | low polyreactivity |
| QVQLQESGGLVQAGGLRLSCAASGSVSYQEAMGWYRQAPGKERELVATISFGANTNYADSVKGRFTISRDNAKNTVYLHMNSRKPEDTAVYYCAAESLFDDYYGYWGQGTQVTVSS | low polyreactivity |
| QVQLQESGGRLVQADGSLRLSCAASGSIFGYYYMGWYRQAPGKDRELVATINICGITNYADSVKGRFTISRDNAKNTVYLQMNSLKPDDTAVYYCAADEYAQRDLGYWGQGTQVTVSS | low polyreactivity |
| QVQLQESGGVLVQAGGSLRLSCAASGNILDADIMGWYRQAPGKERELVASITDGGSTNYADSVKGRFTISRDNAKNTVYLQMNSLKPEDTAVYYCAAIAYPDIPTYFDYDSEYFYWGQGTQVTVSS | low polyreactivity |
| QVQLQESGGVQAGGSLRLSCAESGYISRSDVMGWYRQAPGKERELVATINNGTITYYADSVKGRFTISRDNAKNTVYLQMNSLKPEDTAVHYCAVVQSDTDSLYYWGQGTQVTVSS | low polyreactivity |
| QVQLQESGGVQAGGSLRQSCAASGYISRSDVMGWYRQAPGKERELVATINNATITYYADSVKGRFTISRDNAKNTVYLQMNSLKPEDTAVHYFAVVQSDTDSLYYWGQGTQVTVSS | low polyreactivity |
| QVQLQESGRRPGAAGGSPRMSCAASGNIFWVAVMGRYRQAPGKERELVASIGFGCTTYYADSVKCRFTISRDNAKNTVYLQMISLKPEDTAVYYCAAPLYDWGELDYWGQGTQVPVSS | low polyreactivity |
| QVQLQESGSGLVQAGGSLRLSCAASGAIFPAYLMGWYRQAPGKERELVAGISYGSITYCADSVKGRFNISRDNEKNTVYLQMNSLKPEDTAVYYCAVWRPGGDEYYYWGQGTQVTVSS | low polyreactivity |
| QVQLQESRGGLVQAVRSLRLSCAASGTILYSLGMGWYRQAPGKRREFVASITRGTTTNYAESVKGRFTISRDNAKKTVYPQMNSLKAEDTGVSFCAGPPFGVSSYDYWGQGNQVTVSS | low polyreactivity |
| QVQLQESRGGPVLAGGSLRLSCAASGTIFVRLDMGWYRQAPGKEREFVATIGSGSSTYYADSVKGSFTISRDNVKNTVYLQMNSLKPEDTAVYYCAVSAAEQSRHYYWDQGTQVTVSS | low polyreactivity |
| QVQLQESVGGLVLAGGSLRLICSASANISVYGTMGWYRKAPGKEREFVATIDPGTNTNYADSVKDRFTISRDNAKNTVYLQMNSLKPEDTAVYYCEVEGGSDWPYRYWGQGTQVTVSS | low polyreactivity |
| QVQLQESVGGLVQAGGSLRLSCAASGSIFKVVDMGLYRQAPAKEREFVATIGEGGNTYYADSVKGRFTISRDNAKNTVYLQMNSLKPEDTAVYFYAVVLGTSYRYTYWGQGTLVTVSS | low polyreactivity |
| QVQLQESVGGLVQAGGSLRLSCAASGTISPQPAMGWYRPAPGKEREFVAGIDTGAITNYADSVKGRFTISRDNAKNTVYLQMNSLKPEDTAVYYCAVFPAAYDYYERYYTYWGLGTQVTVSS | low polyreactivity |
| QVQLQGSGGGLVQAAGSLRLSCAASGYIFQNVPMGWNRQAPGKERELVAGIDNGTSTNYADSVNGRFTISRDNAKKTVYLQMNSLKPEDTAVYYCAAAGQADDTLGYWGQGTQVTVSR | low polyreactivity |
| QVQLQGSGGGLVQAGGSLRLSCAASGNIFDADIKGWYRQAPGKEIELVASITDGGSTNYADSVKGRFTISRDNAKNTVYLQMYSLKHEDTAVYYCAAIAYPDIPTYFDYDSDCFYWSQGTQVTVSS | high polyreactivity |
| QVQLQGSGGGLVQAGGSLRMSCAASAYIFQNVPKGLNRKEPGKERELVAGIDNGTSTNYADSVNGRFTISRDNAKNSVYLEMKSLKPVDTAVYYCAAAGQADDTLGYWGQGTQVTVSS | low polyreactivity |

| Sequence | polyreactivity (PSR sort gate) |
| --- | --- |
| QVQLQGSGGGLVQAGGSLRQSCAASGYIFQNVPMGWNRQAPGKERELVAGIDNGTSTNYADSVNGRFTISRDNAKNTVYLQMNSLKPEDTAVYYCAAAGQADDTLGYWGQGTQVTVSS | low polyreactivity |
| QVQLQVSGGDLLQAGGSLRLSCAASGTIYGHTSMGWYRQAPGKEREFVAAITDGGNTNYADSVKGRFTISRDNAINTVYLQMISLKPEDTAVYYCEVLFSDVAYYAYWGQGTQVTVSS | low polyreactivity |
| QVQLQVSGGGLVQAGGSLRLNSAASGAIFLTSEMGWYRQAPGKERELVAAIATGTSTNYADSVKGLFTISRDNAKNTVYLQMNSLKPEDTAVYYCATYHYWGQGTQVTVSS | low polyreactivity |
| QVQLRESGGGLVQAGGSLSLSCAASGTIFYSRYMGWYRQAPGKEREFVASISSGGNTNYADSVKGRFTISRDNAKNTVYLQMNSLKPEDTAVYYCAVNTGLITTCPYWGQGTQVTVSS | high polyreactivity |
| QVQLVAGGGLVQAGGSLRLSCAASGSIFYSNAMGWYRQAPGKERELVAAISFSGGSTYYADSVKGRFTISRDNAKNTVYLQMNSLKPEDTAVYYCAAEFYKRKFGPFEYWGQGTQVTVSS | low polyreactivity |
| QVQLVASGGALVQAGGSLRLSCAASGFIFDYYAMGRYRPAPGKERELVAAITSRSGSTYYADSVKGRFTISRDNAKNTVYLQMNSLKPEDTAVYYCARRFKYGSTAWRFYYWGQGTQVTVSS | high polyreactivity |
| QVQLVASGGGLVQAGGSLRISSAASGGIFPQYAMGWYRQAPGKERELVAAISRRGGSTYYADSVKGRFTISRDNAKNTVYLQMNSLKPEDTAVYFCNAGGSDYGVSNKYNSWGQGTQVTVSS | high polyreactivity |
| QVQLVASGGGLVQAGGSLRLSCAASGRTSWYYAMGWYRHAPGKERELVAAITASGGSTYADSVKGRFTISRDNAKNTVYLQMNSLKPEDTAVYYCAAERPYSRVGYYYWGQGTQVTVSS | high polyreactivity |
| QVQLVASGGGLVQAGGSLRLSCAATGNTLGYYDMGWYRQAPGKERELVAGITFRGGRTYYADSVKGRFTISRDNPKNTVYLQMKSLKPEDTAVYYCAKRTRYSPGHDYWGLGTQVTVSS | high polyreactivity |
| QVQLVASGGGLVQAGGSLRLSSAASGFTFYGYAMGWYSQARGKERELVATIRRSTGSTYYADSVKGRFTISRDNAKNTVYLQINSLIPEDTAVYYCATRVWFPITSYDYWGQGTQVTVSS | low polyreactivity |
| QVQLVASGGGLVQAGGSVRLSCAASGFIVNYYAMGWYRQAPGKEGELLAAISSGGSTYYADSVKGRFTISRDNAKNTVYLQMNSLKPEDTAVYYCAARYTDLRLARYYYDYYYWGQGTQVTVSS | high polyreactivity |
| QVQLVASGGGLVQARGSLRLSCAASGRTFTYYAMGWYRQAPGKESELVAAISDSGGSTYYADSVKGRFTISRDNAKNTVYVQMNSLKPEDTAVYYCAAYRYVGPWTDVGSPDYDDWGQGTQVTVSS | low polyreactivity |
| QVQLVASGGGLVQSGGSLRLSCAASGSTITWYAMGWYRQAPGKDRELVARISSGDRPNYADSVKGRFTISRDNAKNTVYLQMNSLKPEDTAVYYCNADYGQPSYYDDGDYWGQGTQVTVSS | low polyreactivity |
| QVQLVDSAGGLVHAGGSLRLSCAASGLTFYSNTMGWYRPPPGKERELVAGISWGGDTTYYADSVKGRFTISRDNAKNTVYLQMNSLKPEDTAVYYCAADRSYWRHRYSYDYWGQGTQVTVSS | low polyreactivity |
| QVQLVDSAGGLVQAGGSLRLSCAASGITFGYYAMGWYRQAPGKERELVAAITSSGSTYYADSVKGRFTISRDNAKNTVYLQMNSLNPEDTAVYYCAARSWYSKYYYWGQGTQVTVSS | high polyreactivity |
| QVQLVDSAGGLVQAGGSLRLSCAASGLNYAIYAMGWYREAPGKERELVAAIRWSGASTYADSVKGRFTISRDNAKNTVYLQMNSLKPEDTAVYYCAADDLLDYDYWGQGTQVTVSS | low polyreactivity |
| QVQLVDSAGGLVQAGGSLRLSCAASGRTYVVNTRGWSRQAPGKERELVASISSGTTNYADSVKGRFTISRDNAKNTVYLQMNSLKPVDTAVYYCNTDGGDHPTARYGYWGQGTQVTVSS | high polyreactivity |
| QVQLVDSGAGLVQAGGSLRIICAASVRTFPRNAMGWYRQAPGKEMEMVAAITGSGGSTYYADSVKGRFTISRDNAKNTVYLQMNSLKPEDTAVYYCAARGPSRRRDGSDYWGQGTQVTVSS | high polyreactivity |
| QVQLVDSGAGLVQAGGSLSLTCAASGYTFYANAMGWYRQAPGKERELVAGINRSGSTYYADSVKGRFTISRDNAKNTVYLQMNSLKPEDTAVYYCATAWHRGVRGRTSGAFDYWGQGTQVTVSS | high polyreactivity |
| QVQLVDSGGCLVQAGRSLRLSCAASGSIYVPNAMGWYRQAPRKERDLVAGISRGGSTNYADSVKGRFTISRDNAKNSVYLQMKRLKPEDTAVYYCARDSRTIRYYAWFYPFRYDYWGQGTQVTVSS | low polyreactivity |
